The text below walks through data of the RNAGym collection of RNA variant scans (doi:10.1093/molbev/msab373).

To fix the notation:
B1: Azoarcus group I ribozyme (parent)
chain: GUGCCUUGCGCCGGGAAACCACGCAAGGGAUGGUGUCAAAUUCGGCGAAACCUAAGCGCCCGCCCGGGCGUAUGGCAACGCCGAGCCAAGCUUCGGCGCCUGCGCCGAUGAAGGUGUAGAGACUAGACGGCACCCACCUAAGGCAAACGCUAUGGUGAAGGCAUAGUCCAGGGAGUGGCGAAAGUCACACAAACCGG

Variants of B1 are the subject of this series. The series can be described thus: reverse-splicing fitness (ratio to wild type); higher = more active; in vitro selection; Mg2+ level not given. Put shortly:
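An in vitro group I ribozyme library with randomized positions was T7-transcribed and gel-purified. In triplicate, 10 pmol RNA in EPPS pH 7.5 was reacted with 50 pmoles of a 30-nt RNA substrate for 1 h at 37 °C across several added MgCl2 levels (1–48 mM), then stopped with EDTA. Products were reverse transcribed from a substrate-complementary primer, PCR-amplified and sequenced (HiSeq 4000). Fitness is a variant's read proportion after selection over that before, normalised to wild type.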
Regarding GUGCCUUGCGCCGGGAAACCACGCAAGGGAUGGUGUCAAAUUCGGCGAAACCUAAGCGCCCGCCCGGGCGUAUGGCAACGCUGAGCCAAGCUUCGGCGCCUGCGCCGAUGUAGGUGUAGGGACUAGACGGCACCCACCUAAGGCCAACGUUAUGGUGAAGGCAUAGUCCAGGGAGGGGCGAAAGUCACACAAACCGG [C82U A111U A120G A145C C150U U176G], the reverse-splicing fitness was 0.00412.

Regarding GUGCCUUGCGCCGGGAAACCACGCAAGGGAUGGUGUCAAAUUCGGCGAAACCUAAGCGCCCGCCCGGGCGUAUGGCAACGCUGAGCCAAGCUUCGGCGCCUGCGCCGAUGUAGGUGUAGGGACUAGACGGCACCCACCUAAGGCCAACGUUAUGGUGAAGGCAUAGUCCAGGGAGAGGCGAAAGUCACACAAACCGG [C82U A111U A120G A145C C150U U176A], the reverse-splicing fitness was determined as 0.00859.

With GUGCCUUGCGCCGGGAAACCACGCAAGGGAUGGUGUCAAAUUCGGCGAAACCUAAGCGCCCGCCCGGGCGUAUGGCAACGCUGAGCCAAGCUUCGGCGCCUGCGCCGAUGUAGGUGUAGGGACUAGACGGCACCCACCUAAGGCCAACGUUAUGGUGAAGGCAUAGUCCAGGGAGCGGCGAAAGUCACACAAACCGG [C82U A111U A120G A145C C150U U176C], the reverse-splicing fitness stood at 0.00906.

As for GUGCCUUGCGCCGGGAAACCACGCAAGGGAUGGUGUCAAAUUCGGCGAAACCUAAGCGCCCGCCCGGGCGUAUGGCAACGCUGAGCCAAGCUUCGGCGCCUGCGCCGAUGUAGGUGUAGGGACUAGACGGCACCCACCUAAGGCCAACGUUAUGGUGAAGGCAUAGUCUAGGGAGCGGCGAAAGUCACACAAACCGG [C82U A111U A120G A145C C150U C169U U176C], the reverse-splicing fitness turned out to be 0.00897.

As for GUGCCUUGCGCCGGGAAACCACGCAAGGGAUGGUGUCAAAUUCGGCGAAACCUAAGCGCCCGCCCGGGCGUAUGGCAACGCUGAGCCAAGCUUCGGCGCCUGCGCCGAUGUAGGUGUAGGGACUAGACGGCACCCACCUAAGGCCAACGUUAUGGUGAAGGCAUAGUCUAGGGAGGGGCGAAAGUCACACAAACCGG [C82U A111U A120G A145C C150U C169U U176G], the reverse-splicing fitness amounted to 0.00401.

For the variant GUGCCUUGCGCCGGGAAACCACGCAAGGGAUGGUGUCAAAUUCGGCGAAACCUAAGCGCCCGCCCGGGCGUAUGGCAACGCUGAGCCAAGCUUCGGCGCCUGCGCCGAUGUAGGUGUAGGGACUAGACGGCACCCACCUAAGGCCAACGUUAUGGUGAAGGCAUAGUCUAGGGAGAGGCGAAAGUCACACAAACCGG [C82U A111U A120G A145C C150U C169U U176A], the reverse-splicing fitness amounted to 0.0187.

As for GUGCCUUGCGCCGGGAAACCACGCAAGGGAUGGUGUCAAAUUCGGCGAAACCUAAGCGCCCGCCCGGGCGUAUGGCAACGCUGAGCCAAGCUUCGGCGCCUGCGCCGAUGUAGGUGUAGGGACUAGACGGCACCCACCUAAGGCCAACGCUAUGGUGAAGGCAUAGUCAAGGGAGGGGCGAAAGUCACACAAACCGG [C82U A111U A120G A145C C169A U176G], the reverse-splicing fitness is 0.00391.

Turning to GUGCCUUGCGCCGGGAAACCACGCAAGGGAUGGUGUCAAAUUCGGCGAAACCUAAGCGCCCGCCCGGGCGUAUGGCAACGCUGAGCCAAGCUUCGGCGCCUGCGCCGAUGUAGGUGUAGGGACUAGACGGCACCCACCUAAGGCCAACGCUAUGGUGAAGGCAUAGUCAAGGGAGAGGCGAAAGUCACACAAACCGG [C82U A111U A120G A145C C169A U176A], the reverse-splicing fitness was 0.00993.

GUGCCUUGCGCCGGGAAACCACGCAAGGGAUGGUGUCAAAUUCGGCGAAACCUAAGCGCCCGCCCGGGCGUAUGGCAACGCUGAGCCAAGCUUCGGCGCCUGCGCCGAUGUAGGUGUAGGGACUAGACGGCACCCACCUAAGGCCAACGCUAUGGUGAAGGCAUAGUCAAGGGAGCGGCGAAAGUCACACAAACCGG [C82U A111U A120G A145C C169A U176C]: the reverse-splicing fitness amounted to 0.00603.

Turning to GUGCCUUGCGCCGGGAAACCACGCAAGGGAUGGUGUCAAAUUCGGCGAAACCUAAGCGCCCGCCCGGGCGUAUGGCAACGCUGAGCCAAGCUUCGGCGCCUGCGCCGAUGUAGGUGUAGGGACUAGACGGCACCCACCUAAGGCCAACGUUAUGGUGAAGGCAUAGUCGAGGGAGUGGCGAAAGUCACACAAACCGG [C82U A111U A120G A145C C150U C169G], the reverse-splicing fitness was 0.00792.

For GUGCCUUGCGCCGGGAAACCACGCAAGGGAUGGUGUCAAAUUCGGCGAAACCUAAGCGCCCGCCCGGGCGUAUGGCAACGCUGAGCCAAGCUUCGGCGCCUGCGCCGAUGUAGGUGUAGGGACUAGACGGCACCCACCUAAGGCCAACGUUAUGGUGAAGGCAUAGUCAAGGGAGUGGCGAAAGUCACACAAACCGG [C82U A111U A120G A145C C150U C169A], the reverse-splicing fitness stood at 0.00726.

Consider GUGCCUUGCGCCGGGAAACCACGCAAGGGAUGGUGUCAAAUUCGGCGAAACCUAAGCGCCCGCCCGGGCGUAUGGCAACGCUGAGCCAAGCUUCGGCGCCUGCGCCGAUGUAGGUGUAGGGACUAGACGGCACCCACCUAAGGCCAACGUUAUGGUGAAGGCAUAGUCUAGGGAGUGGCGAAAGUCACACAAACCGG [C82U A111U A120G A145C C150U C169U], for which the reverse-splicing fitness came to 0.00734.

Take GUGCCUUGCGCCGGGAAACCACGCAAGGGAUGGUGUCAAAUUCGGCGAAACCUAAGCGCCCGCCCGGGCGUAUGGCAACGCUGAGCCAAGCUUCGGCGCCUGCGCCGAUGUAGGUGUAGGGACUAGACGGCACCCACCUAAGGCCAACGGUAUGGUGAAGGCAUAGUCCAGGGAGGGGCGAAAGUCACACAAACCGG [C82U A111U A120G A145C C150G U176G]: the reverse-splicing fitness was determined as 0.0024.

Regarding GUGCCUUGCGCCGGGAAACCACGCAAGGGAUGGUGUCAAAUUCGGCGAAACCUAAGCGCCCGCCCGGGCGUAUGGCAACGCUGAGCCAAGCUUCGGCGCCUGCGCCGAUGUAGGUGUAGGGACUAGACGGCACCCACCUAAGGCCAACGGUAUGGUGAAGGCAUAGUCCAGGGAGCGGCGAAAGUCACACAAACCGG [C82U A111U A120G A145C C150G U176C], the reverse-splicing fitness was 0.00719.

With GUGCCUUGCGCCGGGAAACCACGCAAGGGAUGGUGUCAAAUUCGGCGAAACCUAAGCGCCCGCCCGGGCGUAUGGCAACGCUGAGCCAAGCUUCGGCGCCUGCGCCGAUGUAGGUGUAGGGACUAGACGGCACCCACCUAAGGCCAACGGUAUGGUGAAGGCAUAGUCCAGGGAGAGGCGAAAGUCACACAAACCGG [C82U A111U A120G A145C C150G U176A], the reverse-splicing fitness was found to be 0.00493.
